Measurements taken from article doi:10.1101/712158.

What was measured:
[1] = target: L19-hIL2 (human); experiment: SEC
[2] = target: L19-mTNF (murine); experiment: SEC

stoichiometry N [1] | stoichiometry N [2] | Substance
2 | – | L19-hIL2
– | 3 | L19-mTNF
